Results as given in article PMC3960972 (The Biochemical journal, 2013).

Columns and labels:
SaFosB = SaFosB (Staphylococcus aureus, UniProt Q5HDM4); assay: HPLC-based enzyme inhibition kinetics, purified enzyme; assay type: biochemical
N[C@@H](CS)C(=O)O = assay: HPLC-based steady-state kinetics; assay type: biochemical, Staphylococcus aureus; settings: […] Mn2+; fosfomycin ([…])

Row | Ki (SaFosB) [mM] | Molecule | Km (N[C@@H](CS)C(=O)O) [mM] | kcat (N[C@@H](CS)C(=O)O) [s⁻¹] | kcat/Km (N[C@@H](CS)C(=O)O) [M⁻¹ s⁻¹]
1 | 3.9 | N[C@@H](CO)C(=O)N[C@H]1[C@@H](O[C@@H](CC(=O)O)C(=O)O)O[C@H](CO)[C@@H](O)[C@@H]1O [BOH] | – | – | –
2 | – | SaFosB (Staphylococcus aureus subsp. aureus COL) | 13 | 2.3 ± 0.2 | 175 ± 44
